Numbering of substitutions follows the chain as printed.
T1: cynoSIRPα (NP_001271679), Extracellular Domain + His-Tag (cynomolgus monkey)
T1 construct: also called CySIRPα NP_001271679; not shown: His-Tag
T1 chain: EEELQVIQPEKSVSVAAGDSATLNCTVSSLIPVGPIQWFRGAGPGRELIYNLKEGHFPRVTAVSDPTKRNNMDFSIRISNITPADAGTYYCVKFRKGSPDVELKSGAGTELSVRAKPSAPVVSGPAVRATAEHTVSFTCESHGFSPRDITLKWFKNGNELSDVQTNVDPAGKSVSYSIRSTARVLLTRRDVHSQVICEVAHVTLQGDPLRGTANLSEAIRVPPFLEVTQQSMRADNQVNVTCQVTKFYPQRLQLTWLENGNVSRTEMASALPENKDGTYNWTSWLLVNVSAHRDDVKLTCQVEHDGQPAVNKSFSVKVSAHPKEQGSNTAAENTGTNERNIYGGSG

T2: cynoSIRPα (EGM_02252), Extracellular Domain + His-Tag (cynomolgus monkey)
T2 construct: also called CySIRPα EGM_02252; not shown: His-Tag
T2 chain: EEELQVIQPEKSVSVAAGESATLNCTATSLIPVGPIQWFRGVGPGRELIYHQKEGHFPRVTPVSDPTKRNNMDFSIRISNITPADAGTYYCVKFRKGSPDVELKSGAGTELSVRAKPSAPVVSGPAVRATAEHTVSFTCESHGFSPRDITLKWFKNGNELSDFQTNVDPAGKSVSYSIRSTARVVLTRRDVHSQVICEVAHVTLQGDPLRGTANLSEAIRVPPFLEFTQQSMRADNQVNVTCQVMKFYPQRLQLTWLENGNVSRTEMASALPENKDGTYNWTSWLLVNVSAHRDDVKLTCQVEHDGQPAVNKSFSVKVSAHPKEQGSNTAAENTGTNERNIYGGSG

T3: cynoSIRPα (XP_015313155), Extracellular Domain + His-Tag (cynomolgus monkey)
T3 construct: also called CySIRPα XP_015313155; not shown: His-Tag
T3 chain: T1 chain with A62P, V163F, L185V

B1: Antibody E7 (antibody, human IgG1, kappa, L234A L235A, V domains shown)
VH: QVQLQESGPGLVRPSETLSLTCTVSGGSIRNYYWSWIRQPPGKGLEWIGFIYYNGRTFYNPSLKSRVTISLDTSKNQFSLKMTSVTAADTAVYYCARVRAYSGIGLDGTDVWGQGTTVTVSS
VL: DIVMTQSPLSLPVTPGEPASISCKSSQSLLYSNGYAYLDWYLQRPGQSPQLLIYQGSNRASGVPDRFSGSGSGTDFTLKISRVEAEDVGVFYCMQALQTPLTFGGGTKVEIKR
B2: Antibody E18 (antibody, human IgG1, kappa, L234A L235A, V domains shown)
VH: B1 VH with N54T, T73M
VL: B1 VL with Q55L, F91Y
B3: Antibody E8 (antibody, human IgG1, kappa, L234A L235A, V domains shown)
VH: B1 VH with I48M, Y53D, T73M, K75M
VL: B1 VL
B4: Antibody E20 (antibody, human IgG1, kappa, L234A L235A, V domains shown)
VH: B1 VH with N54T, T73M, K75I
VL: B1 VL with G34A, A36N, Q55L, F91Y
B5: Antibody E9 (antibody, human IgG1, kappa, L234A L235A, V domains shown)
VH: B1 VH with T73M, K75I
VL: B1 VL with G34A, A36N, Q55L, F91Y
B6: Antibody E13 (antibody, human IgG1, kappa, L234A L235A, V domains shown)
VH: B1 VH with N54T, T73M, K75I
VL: B1 VL
B7: Antibody E17 (antibody, human IgG1, kappa, L234A L235A, V domains shown)
VH: B1 VH with I48M, Y53D, T73M, K75M
VL: B1 VL with G34A, A36N, Q55L, F91Y
B8: Antibody E12 (antibody, human IgG1, kappa, L234A L235A, V domains shown)
VH: B1 VH with T73M
VL: B1 VL with G34A, A36N, Q55L, F91Y
B9: Antibody E14 (antibody, human IgG1, kappa, L234A L235A, V domains shown)
VH: B1 VH with T73K
VL: B1 VL with G34A, A36N, Q55L, F91Y
B10: Antibody E15 (antibody, human IgG1, kappa, L234A L235A, V domains shown)
VH: B1 VH with N54T, T73M, K75I
VL: B1 VL with Q55L, F91Y
B11: Antibody E21 (antibody, human IgG1, kappa, L234A L235A, V domains shown)
VH: B1 VH with N54T, T73M
VL: B1 VL with G34A, A36N, Q55L, F91Y
B12: Antibody E19 (antibody, human IgG1, kappa, L234A L235A, V domains shown)
VH: B1 VH with N54T, T73M
VL: B1 VL
B13: Antibody A4 (antibody, human IgG1, kappa, L234A L235A, V domains shown)
VH: EVQLVESGGGLVQPGGSLRLSCAASGFTLSSYDMHWVRQAPGKGLEWVSAIGTAGDTYYTGSVKGRFTISRENAKNSLYLQMNSLRAADTAVYYCVRGGVWDDAFDIWGQGTMVTVSS
VL: DIQMTQSPSSLSASVGDRVTITCRASQGINNYAAWFQQKPGKAPKSLIYTASSLHSGVPSKFSGSGSGTDFTLTISSLQPEDFATYYCQQYVSYPYTFGQGTKLEIKR
B14: Antibody A10 (antibody, human IgG1, kappa, L234A L235A)
heavy: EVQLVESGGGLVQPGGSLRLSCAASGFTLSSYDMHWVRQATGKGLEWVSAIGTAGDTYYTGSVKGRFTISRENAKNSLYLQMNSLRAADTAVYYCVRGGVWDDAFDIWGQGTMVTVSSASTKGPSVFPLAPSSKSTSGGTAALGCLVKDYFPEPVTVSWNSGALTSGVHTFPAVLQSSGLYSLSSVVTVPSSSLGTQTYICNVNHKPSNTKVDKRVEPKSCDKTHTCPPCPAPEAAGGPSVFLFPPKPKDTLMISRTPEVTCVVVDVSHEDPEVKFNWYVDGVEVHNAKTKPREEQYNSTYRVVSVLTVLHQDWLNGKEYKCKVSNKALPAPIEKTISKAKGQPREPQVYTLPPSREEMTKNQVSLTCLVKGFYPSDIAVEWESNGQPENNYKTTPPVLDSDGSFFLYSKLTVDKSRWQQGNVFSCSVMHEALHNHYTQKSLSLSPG
light: DIQMTQSPSSLSASVGDRVTITCRASQDINNYLAWFQQKPGKAPKSLIYTASSLHSGVPSKFSGSGSGTDFTLTISSLQPEDFATYYCQQYVSYPYTFGQGTKLEIKRTVAAPSVFIFPPSDEQLKSGTASVVCLLNNFYPREAKVQWKVDNALQSGNSQESVTEQDSKDSTYSLSSTLTLSKADYEKHKVYACEVTHQGLSSPVTKSFNRGEC
B15: Antibody A11 (antibody, human IgG4 S228P, kappa)
heavy: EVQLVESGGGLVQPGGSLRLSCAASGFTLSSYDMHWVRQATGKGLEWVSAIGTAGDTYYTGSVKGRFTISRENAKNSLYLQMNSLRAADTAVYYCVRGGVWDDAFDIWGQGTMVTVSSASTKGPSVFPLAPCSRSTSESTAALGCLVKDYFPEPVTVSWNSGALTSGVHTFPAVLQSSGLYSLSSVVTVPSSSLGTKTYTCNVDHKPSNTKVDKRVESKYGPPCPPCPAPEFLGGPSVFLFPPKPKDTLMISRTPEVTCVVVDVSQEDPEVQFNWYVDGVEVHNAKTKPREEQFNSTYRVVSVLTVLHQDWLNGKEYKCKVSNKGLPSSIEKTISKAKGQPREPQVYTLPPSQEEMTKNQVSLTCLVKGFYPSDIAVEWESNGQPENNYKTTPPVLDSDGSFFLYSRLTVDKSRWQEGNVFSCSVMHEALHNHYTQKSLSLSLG
light: B14 light

Each binder was assayed against T4, human SIRPαV1 extracellular domain + His-tag (NP_542970.1) (human, UniProt P78324 31-373) (assay: SPR, Ab captured, ECD-His analyte).
T4 construct: also called hSIRPαV1; HuSIRPαV1
Experimental: (§1) The binding affinity of anti-SIRPα antibodies to the various SIRPα analytes is determined by surface plasmon resonance (SPR) using a ProteOn XPR36 (Bio-Rad). The running buffer for this experiment and all dilutions (except where stated) are done in 1×HBS-EP+. […] The sensorchip is deactivated with 1M ethanolamine HCl for 420 sec at a flowrate of 10 μl/min.
(§2) The analyte is injected over the captured antibody for 300 sec at a flowrate of 30 μl/min. The dissociation is done for 600 sec. Two-fold serial dilutions of each SIRP protein (Extracellular Domain+His-Tag) are injected as analyte with the highest concentrations indicated in table 36 below.

T4 sequence (P78324 other isoform, or with tags, fused parts or gaps): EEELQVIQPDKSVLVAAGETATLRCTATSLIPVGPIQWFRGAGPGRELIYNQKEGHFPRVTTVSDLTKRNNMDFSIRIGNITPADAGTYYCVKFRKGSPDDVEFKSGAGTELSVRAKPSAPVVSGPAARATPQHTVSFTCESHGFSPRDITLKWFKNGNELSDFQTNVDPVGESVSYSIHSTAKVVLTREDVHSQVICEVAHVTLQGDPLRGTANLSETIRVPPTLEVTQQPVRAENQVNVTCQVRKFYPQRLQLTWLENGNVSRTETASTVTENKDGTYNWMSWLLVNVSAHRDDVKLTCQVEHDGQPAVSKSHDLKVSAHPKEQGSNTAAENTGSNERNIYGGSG

Row | Kd [nM] | Binder
1 | 1.2 | B1
2 | 2.46 | B2
3 | 1.21 | B3
4 | 3.42 | B4
5 | 1.22 | B5
6 | 1.7 | B6
7 | 2.36 | B7
8 | 1.67 | B8
9 | 1.84 | B9
10 | 1.91 | B10
11 | 4.46 | B11
12 | 2.52 | B12

What follows are binders tested against T5, human SIRPαV2 extracellular domain + His-tag (CAA71403.1) (human, UniProt P78324 31-373) (assay: SPR, Ab captured, ECD-His analyte).
T5 construct: also called hSIRPαV2; HuSIRPαV2
Experimental: as §1, §2

T5 sequence (P78324 other isoform, or with tags, fused parts or gaps): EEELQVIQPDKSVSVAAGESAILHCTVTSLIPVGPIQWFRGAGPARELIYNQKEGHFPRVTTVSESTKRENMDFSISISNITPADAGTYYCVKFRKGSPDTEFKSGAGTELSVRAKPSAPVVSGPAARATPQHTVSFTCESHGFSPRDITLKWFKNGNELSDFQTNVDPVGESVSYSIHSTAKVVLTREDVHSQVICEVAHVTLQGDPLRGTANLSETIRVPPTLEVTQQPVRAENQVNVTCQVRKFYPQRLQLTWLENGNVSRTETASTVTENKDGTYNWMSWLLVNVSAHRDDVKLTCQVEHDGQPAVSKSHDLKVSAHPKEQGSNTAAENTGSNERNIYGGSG

Row | Kd [nM] | Binder
13 | 1.18 | B1
14 | 0.898 | B2
15 | 0.542 | B3
16 | 1.11 | B4
17 | 0.941 | B5
18 | 0.69 | B6
19 | 0.797 | B7
20 | 1.26 | B8
21 | 1.36 | B9
22 | 0.737 | B10
23 | 1.39 | B11
24 | 0.97 | B12

The binders below were run against T6, human SIRPβ1 extracellular domain + His-tag (NP_006056.2) (human, UniProt O00241 30-371) (assay: SPR, Ab captured, ECD-His analyte).
T6 construct: also called hSIRPβ1; HuSIRPβ1
Experimental: as §1, §2

T6 sequence (O00241 other isoform, or with tags, fused parts or gaps): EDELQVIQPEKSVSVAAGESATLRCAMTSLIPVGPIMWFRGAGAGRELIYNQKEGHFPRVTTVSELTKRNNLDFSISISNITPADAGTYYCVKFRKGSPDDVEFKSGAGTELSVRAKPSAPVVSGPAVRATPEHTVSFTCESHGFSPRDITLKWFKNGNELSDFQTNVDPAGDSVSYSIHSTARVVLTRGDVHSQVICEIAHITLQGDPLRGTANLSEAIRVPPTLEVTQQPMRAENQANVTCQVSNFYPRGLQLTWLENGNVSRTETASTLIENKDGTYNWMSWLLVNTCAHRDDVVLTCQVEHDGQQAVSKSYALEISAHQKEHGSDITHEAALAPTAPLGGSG

Row | Kd [nM] | binding result | Binder
25 | 874 | – | B1
26 | – | no binding (tested: 1000 nM) | B2
27 | 2420 | – | B3
28 | 435 | – | B4
29 | – | no binding (tested: 1000 nM) | B5
30 | – | no binding (tested: 1000 nM) | B6
31 | – | no binding (tested: 1000 nM) | B7
32 | 1670 | – | B8
33 | – | no binding (tested: 1000 nM) | B9
34 | – | no binding (tested: 1000 nM) | B10
35 | – | no binding (tested: 1000 nM) | B11
36 | 1660 | – | B12

What follows are binders tested against T7, human SIRPβL/SIRPβ1v3 extracellular domain + His-tag (NP_001129316.1) (human, UniProt Q5TFQ8 30-371) (assay: SPR, Ab captured, ECD-His analyte).
T7 construct: also called hSIRPβ1v3; HuSIRPβ1v3
Experimental: as §1, §2

T7 sequence (Q5TFQ8 other isoform, or with tags, fused parts or gaps): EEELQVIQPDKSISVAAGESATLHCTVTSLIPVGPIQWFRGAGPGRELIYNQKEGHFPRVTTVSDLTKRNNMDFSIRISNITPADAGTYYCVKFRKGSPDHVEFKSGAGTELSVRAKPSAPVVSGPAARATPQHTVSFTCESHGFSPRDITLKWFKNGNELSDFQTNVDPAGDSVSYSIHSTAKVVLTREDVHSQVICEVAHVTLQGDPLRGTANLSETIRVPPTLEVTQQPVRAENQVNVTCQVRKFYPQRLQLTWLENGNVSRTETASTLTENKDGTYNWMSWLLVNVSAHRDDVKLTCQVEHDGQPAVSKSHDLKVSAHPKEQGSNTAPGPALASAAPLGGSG

Row | Kd [nM] | Binder
37 | 2.21 | B1
38 | 4.8 | B2
39 | 2.58 | B3
40 | 8.48 | B4
41 | 3.16 | B5
42 | 4.17 | B6
43 | 5.32 | B7
44 | 3.43 | B8
45 | 4.8 | B9
46 | 4.56 | B10
47 | 8.84 | B11
48 | 4.74 | B12

What follows are binders tested against T8, human SIRPγ extracellular domain + His-tag (NP_061026.2) (human, UniProt Q9P1W8 29-360) (assay: SPR, Ab captured, ECD-His analyte).
T8 construct: also called hSIRPγ; HuSIRPγ
Experimental: as §1, §2

T8 sequence (Q9P1W8 29-360): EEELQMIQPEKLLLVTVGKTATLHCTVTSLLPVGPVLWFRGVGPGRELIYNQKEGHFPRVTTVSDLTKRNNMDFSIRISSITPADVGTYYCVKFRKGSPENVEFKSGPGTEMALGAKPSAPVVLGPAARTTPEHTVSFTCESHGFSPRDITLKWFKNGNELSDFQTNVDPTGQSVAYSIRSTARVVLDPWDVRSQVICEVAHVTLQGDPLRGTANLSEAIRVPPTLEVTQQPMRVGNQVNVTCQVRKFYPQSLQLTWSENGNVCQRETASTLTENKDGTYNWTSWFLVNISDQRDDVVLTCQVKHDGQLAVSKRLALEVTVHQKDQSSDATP

Row | binding result | Binder
49 | no binding (tested: 1000 nM) | B1
50 | no binding (tested: 1000 nM) | B2
51 | no binding (tested: 1000 nM) | B3
52 | no binding (tested: 1000 nM) | B4
53 | no binding (tested: 1000 nM) | B5
54 | no binding (tested: 1000 nM) | B6
55 | no binding (tested: 1000 nM) | B7
56 | no binding (tested: 1000 nM) | B8
57 | no binding (tested: 1000 nM) | B9
58 | no binding (tested: 1000 nM) | B10
59 | no binding (tested: 1000 nM) | B11
60 | no binding (tested: 1000 nM) | B12

Target: T1, cynoSIRPα (NP_001271679), Extracellular …
Assay: SPR, antibody captured on Protein A/G, ECD-His analyte, steady-state fit
Experimental: (§3) The binding kinetics of anti-SIRPα antibodies to various SIRPα analytes are determined by surface plasmon resonance (SPR) using a Biacore 8K+(Cytiva). 1×HBS-EP+(Cytiva) is used as running buffer and for all the dilutions unless stated otherwise. The Series S CM5 sensorchip is activated with a 1:1 mixture of 0.1 M NHS (N-hydroxysuccinimide) and 0.4 M EDC (1-Ethyl-3-(3-dimethylaminopropyl) carbodiimide hydrochloride) for 420 seconds at a flow rate of 10 μl/min and immobilized with Protein A/G (Thermo Scientific, 10 μg/ml in 10 mM acetate pH 4.5) for 420 seconds at a flowrate of 10 μl/min resulting in approximately 3000 RU of Protein A/G on the surface. The sensorchip is then deactivated with 1 M ethanolamine HCl pH 8.5 for 420 seconds at a flowrate of 10 μl/min.
(§4) Antibodies (approximately 1 ug/ml) are captured on the Protein A/G surface for 60 seconds at a flowrate of 10 μl/min resulting in capture levels of approximately 240 RU. Dilutions of each SIRP protein (Extracellular Domain+His-Tag, with the concentrations as indicated) are injected as analytes over the captured antibody for 300 seconds of association at a flowrate of 30 μl/min, followed by a dissociation for 600 seconds.
(§5) The above procedures are used to measure binding properties of antibodies of the present disclosure. For each analyte used, the highest concentration was as indicated in Example 3 (see Table 36).

Row | Kd [nM] | Binder
61 | 669 | B13
62 | 388 | B14
63 | 410 | B15

Target: T2, cynoSIRPα (EGM_02252), Extracellular …
Assay: as above
Experimental: as §3, §4, §5

Row | Kd [nM] | Binder
64 | 488 | B13
65 | 282 | B14
66 | 298 | B15

Target: T3, cynoSIRPα (XP_015313155), Extracellular …
Assay: as above
Experimental: as §3, §4, §5

Row | Kd [nM] | Binder
67 | 420 | B13
68 | 203 | B14
69 | 204 | B15

Source: US20230012273A1 (Boehringer Ingelheim, published 2023)
